According to article PMC6135765, “Redox control and autoxidation of class 1, 2 and 3 phytoglobins from Arabidopsis thaliana” (Scientific Reports, 2018):

Target: the molecule itself
Experiment: SEC; analytical size exclusion chromatography of the purified proteins, before and after His8-MBP removal; apparent native size in solution

| Protein | stoichiometry N |
| --- | --- |
| His8-MBP:AtHb3 (Arabidopsis thaliana class 3 non-symbiotic, truncated hemoglobin / phytoglobin, before tag cleavage) (natural protein, UniProt Q67XG0 1-175, looked up, AtHb3, class 3 non-symbiotic (truncated, 2-on-2) hemoglobin of Arabidopsis thaliana; Heme protein; Expressed from pVP16 (Gateway) with an N-terminal 8xHis:MBP double tag and a TEV site; carboxy form oxidised to the ferric form on the column; also called His8-MBP-tagged AtHb3; 8xHis:MBP:Hb3; not shown: His8, N-terminal, kept; MBP, N-terminal, kept) MQSLQDKASVLSGVDQAEAFAIDESNLFDKLGLQTFINLSTNFYTRVYDDEEEWFQSIFSNSNKEDAIQNQYEFFVQRMGGPPLYSQRKGHPALIGRHRPFPVTHQAAERWLEHMQNALDDSVDIDQDSKIKMMKFFRHTAFFLVAGNELKNQNEKPKHKPQCACKHAANKPAEE | 2 |
| AtHb3 (Arabidopsis thaliana class 3 non-symbiotic, truncated hemoglobin / phytoglobin, His8-MBP removed) (natural protein, UniProt Q67XG0 1-175, looked up, AtHb3, class 3 non-symbiotic (truncated, 2-on-2) hemoglobin of Arabidopsis thaliana; Heme protein; The gene primer encodes ENLYFQ directly before the first Met, the adapter primer ENLYFQG before Met; also called class 3 nsHb; source: TEV cleavage, HisTrap removal of the tag, anion exchange; not shown: His8, N-terminal, cleaved; MBP, N-terminal, cleaved) MQSLQDKASVLSGVDQAEAFAIDESNLFDKLGLQTFINLSTNFYTRVYDDEEEWFQSIFSNSNKEDAIQNQYEFFVQRMGGPPLYSQRKGHPALIGRHRPFPVTHQAAERWLEHMQNALDDSVDIDQDSKIKMMKFFRHTAFFLVAGNELKNQNEKPKHKPQCACKHAANKPAEE | 2 |
| His8-MBP:AtHb1 (Arabidopsis thaliana class 1 non-symbiotic hemoglobin / phytoglobin, before tag cleavage) (natural protein, UniProt O24520 1-160, looked up, AtHb1, class 1 non-symbiotic hemoglobin of Arabidopsis thaliana; Heme protein; Expressed from pVP16 (Gateway) with an N-terminal 8xHis:MBP double tag and a TEV site; also called His8-MBP-tagged AtHb1; 8xHis:MBP:Hb1; not shown: His8, N-terminal, kept; MBP, N-terminal, kept) MESEGKIVFTEEQEALVVKSWSVMKKNSAELGLKLFIKIFEIAPTTKKMFSFLRDSPIPAEQNPKLKPHAMSVFVMCCESAVQLRKTGKVTVRETTLKRLGASHSKYGVVDEHFEVAKYALLETIKEAVPEMWSPEMKVAWGQAYDHLVAAIKAEMNLSN | 2 |
| AtHb1 (Arabidopsis thaliana class 1 non-symbiotic hemoglobin / phytoglobin, His8-MBP removed) (natural protein, UniProt O24520 1-160, looked up, AtHb1, class 1 non-symbiotic hemoglobin of Arabidopsis thaliana; Heme protein; The gene primer encodes ENLYFQ directly before the first Met, the adapter primer ENLYFQG before Met; also called class 1 nsHb; source: TEV cleavage, HisTrap removal of the tag, size exclusion and/or anion exchange; not shown: His8, N-terminal, cleaved; MBP, N-terminal, cleaved) MESEGKIVFTEEQEALVVKSWSVMKKNSAELGLKLFIKIFEIAPTTKKMFSFLRDSPIPAEQNPKLKPHAMSVFVMCCESAVQLRKTGKVTVRETTLKRLGASHSKYGVVDEHFEVAKYALLETIKEAVPEMWSPEMKVAWGQAYDHLVAAIKAEMNLSN | 2 |
